The series “SEC” concerns the molecule itself. The series is described as follows: SEC.
The series “atomic force microscopy” concerns the molecule itself. Briefly: atomic force microscopy.
The series “crystal structure” concerns the molecule itself. Briefly: crystal structure.

B1: WHY2, Solanum tuberosum Whirly protein located in the mitochondria (natural protein, Solanum tuberosum (potato))
chain: ADAGKREGRVFAPYSVFKGKAALSAEPRLPTFNRLDSGGVKLNRRGVIMLTFWPSVGERKYDWEKRQLFALSATEVGSLISMGTRDSSEFFHDPSMLSSNAGQVRKSLSIKPNADGSGYFISLSVVNNNLKTNDRFTVPVTTAEFAVMRTAFSFALPHIMGWDRFTNRP
As usually defined, the stoichiometry N is the number of molecules, sites or subunits per partner or assembly. In the case of B1, the results for the “stoichiometry N” value in “SEC” and in the series “atomic force microscopy” were 4 and 24, respectively.

B2: WHY2 K67A (natural protein, Solanum tuberosum (potato))
chain: ADAGKREGRVFAPYSVFKGAAALSAEPRLPTFNRLDSGGVKLNRRGVIMLTFWPSVGERKYDWEKRQLFALSATEVGSLISMGTRDSSEFFHDPSMLSSNAGQVRKSLSIKPNADGSGYFISLSVVNNNLKTNDRFTVPVTTAEFAVMRTAFSFALPHIMGWDRFTNRP
With B2, the “stoichiometry N” value in the series “SEC” turned out to be 4; in “crystal structure”, 24.

The values are drawn from PMC3245945 (Nucleic Acids Research, 2011).
